B1: NCgl0581^E136P: transcription factor NCgl0581 mutant, 136th glutamic acid of SEQ ID NO.1 mutated into proline (SEQ ID NO.3) (protein)
chain: VLNLNRLHILQEFHRLGTITAVAESMNYSRSAISQQMALLEKEIGVKLFEKSGRNLYFTEQGEVLASETHAIMAAVDHARAAVLDSLSEVSGTLKVTSFQSLLFTLAPKAIARLTEKYPHLQVEISQLEVTAALEPLRARRVDVALGEEYPVEVPLVEASIHREVLFEDPMLLVTPASGPYSGLTLPELRDIPIAIDPPDLPAGEWVHRLCRRAGFEPRVTFETSDPMLQAHLVRSGLAVTFSPTLLTPMLESVHIQPLPGNPTRTLYTAVREGRQGHPAIKAFRRALAHVAKESYLEARLVE
B2: wild-type NCgl0581: wild-type LysR-family transcription regulator of Corynebacterium glutamicum (SEQ ID NO.1); L-serine biosensor pDSer is based on it (protein)
chain: VLNLNRLHILQEFHRLGTITAVAESMNYSRSAISQQMALLEKEIGVKLFEKSGRNLYFTEQGEVLASETHAIMAAVDHARAAVLDSLSEVSGTLKVTSFQSLLFTLAPKAIARLTEKYPHLQVEISQLEVTAALEELRARRVDVALGEEYPVEVPLVEASIHREVLFEDPMLLVTPASGPYSGLTLPELRDIPIAIDPPDLPAGEWVHRLCRRAGFEPRVTFETSDPMLQAHLVRSGLAVTFSPTLLTPMLESVHIQPLPGNPTRTLYTAVREGRQGHPAIKAFRRALAHVAKESYLEARLVE

Tested on: L-serine
Assay: L-serine biosensor dose response by exogenous addition of L-serine (eyfp fluorescence intensity/OD600)
Type: cell-based, E. coli JM109
Settings: for detection limit of the biosensor (L-serine concentration at which the dose response curve shows an obvious upward trend): E. coli JM109, L-serine 0, 25, 50, 75 or 100 mM, 2 h at 37° C., PSerE-eyfp reporter
Procedure: Determination of fluorescence intensity and biomass of bacteria: E. coli in the medium was centrifuged at 4° C. and 4000 g for 5 min to collect the bacteria, washed with a precooled PBS buffer for 2-3 times, resuspended and diluted in a PBS buffer (OD600=0.2-0.8). 200 μL of the diluted bacterial liquid was pipetted and added into a 96-well plate, and the fluorescence intensity and bacterial concentration were determined with a multifunctional microplate reader. During the determination of the fluorescence intensity, the parameters of the microplate reader were set to a yellow fluorescent protein excitation wavelength of 488 nm and an emission wavelength of 590/9 nm; and during the determination of the bacteria concentration, the parameters of the microplate reader were set to λ=600.
One part of the biosensor was used for the expression of the transcription regulator NCgl0581, and the other part was connected with the promoter PSerE regulated by NCgl0581, and then connected with eyfp, which was used to characterize the binding of the biosensor to L-serine so as to regulate the transcription level of eyfp. The nucleotide sequence of the promoter PSerE is shown in SEQ ID NO.5, and the nucleotide sequence of the reporter gene eyfp is shown in SEQ ID No.6.
On the basis of site-directed mutation, E. coli JM109 single colonies containing wild-type NCgl0581 and mutant E136P were selected and inoculated into a 10 mL LB (100 μg/mL Kan) liquid medium, and cultured overnight at 37° C. and 220 rpm. A 950 μL of fresh LB medium was added to each well in a sterilized 24-well plate, and then L-serine with different concentrations was added, with the final concentration controlled to be 0, 25, 50, 75 or 100 mM respectively. Finally, 50 μL of the overnight culture bacteria liquid was added to each well, and the well plate was cultured in a shaker for 2 h at 37° C. and 220 rpm.
E. coli JM109 in the medium was centrifuged for 5 min to collect the bacteria, washed with a PBS buffer for 2-3 times, resuspended and diluted in a PBS buffer (OD600=0.2-0.8). 200 μL of the diluted bacterial liquid was pipetted and added into a 96-well plate, and the bacterial concentration OD600 and fluorescence intensity were determined with a multifunctional microplate reader, with the calculated fluorescence intensity/OD600 as the fluorescence intensity value per unit of bacterial cell.
With the fluorescence intensity/OD600 as the ordinate and the L-serine concentration as the abscissa, the dose response curve of the biosensor to L-serine was drawn by OriginPro 8.5. […] According to the response curve, the detection range of wild-type NCgl0581 and mutant E136P could be obtained respectively.

Molecule	detection limit of the biosensor (L-serine concentration at which the dose response curve shows an obvious upward trend)	change of detection limit of the biosensor versus wild type (biosensor in E. coli, L-serine concentration gradients)	response concentration to L-serine (biosensor in E. coli, exogenous addition of L-serine)
B1	25 mM	reduced by half	25 mM
B2	50 mM	–	–

Source: patent US12448422B2, “Transcription factor NCgl0581 mutant and use thereof in L-serine detection” (JITRI FUTURE FOOD TECHNOLOGY INSTITUTE CO., LTD., priority 2023, dated 2025)
